Measurements from patent US10234460B2, “Macrocyclic peptide, method for producing same, and screening method using macrocyclic peptide library” (The University of Tokyo, priority 2013, dated 2019).
Bridge positions count the residues as written; N and C are the ends. Square brackets hold non-standard residues; d marks the D form. Ends that are not written are not given here. * marks the point of attachment. chloroacetamidine = chloroacetamidine warhead on ornithine δ-NH2, N=C(CCl)*; Ahp(2) = CCCCC[C@H](N)C(=O)O; Orn = NCCC[C@H](N)C(=O)O

Legend:
PAD4 = target: T1, PAD4 (Homo sapiens, UniProt Q9UM07); assay: In vitro PAD4 inhibition assay, colorimetric analysis with COLDER solution, substrate BAEE; type: biochemical; settings: peptide 0 μM to 50 μM, PAD4 0.2 μM, BAEE 10 mM; for PAD4 inhibition, dose dependence / PAD4 inhibitory activity compared with the existing PAD4 inhibitor: initial data
T1 construct: purchased Modiquest Research MQ 16.206-10
T1 sequence (Q9UM07 whole entry): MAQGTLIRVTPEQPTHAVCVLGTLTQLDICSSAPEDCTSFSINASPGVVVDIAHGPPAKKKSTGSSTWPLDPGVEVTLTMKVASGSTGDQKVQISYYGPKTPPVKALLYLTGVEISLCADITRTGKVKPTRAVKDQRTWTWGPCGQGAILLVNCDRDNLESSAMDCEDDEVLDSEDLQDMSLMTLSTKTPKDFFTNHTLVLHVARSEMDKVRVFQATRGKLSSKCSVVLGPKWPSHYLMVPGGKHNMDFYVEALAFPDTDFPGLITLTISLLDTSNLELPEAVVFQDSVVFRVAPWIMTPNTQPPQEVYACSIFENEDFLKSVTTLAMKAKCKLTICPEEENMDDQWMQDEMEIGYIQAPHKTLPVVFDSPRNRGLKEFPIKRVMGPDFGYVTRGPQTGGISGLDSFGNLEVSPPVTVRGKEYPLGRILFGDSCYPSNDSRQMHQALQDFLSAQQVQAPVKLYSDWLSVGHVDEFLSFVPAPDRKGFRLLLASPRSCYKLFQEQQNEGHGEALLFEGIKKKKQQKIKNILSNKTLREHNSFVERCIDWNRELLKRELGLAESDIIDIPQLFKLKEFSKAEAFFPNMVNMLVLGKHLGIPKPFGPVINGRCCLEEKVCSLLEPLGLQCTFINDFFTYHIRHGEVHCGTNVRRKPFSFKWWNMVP
Method: Human PAD4 was purchased from Modiquest Research (catalog no. MQ 16.206-10). Human PAD4 is a protein having NCBI accession no. CCDS180.1, a molecular weight of 74.08 kDa, and 663 amino acids.
PAD4 inhibition assay was performed using various concentrations of VB peptides in a reaction buffer containing 100 mM HEPES (pH 7.6) and 50 mM NaCl.
Before reaction was initiated by adding BAEE (final concentration: 10 mM), the above reaction mixture was incubated with PAD4 (0.2 μM) (in the presence of 5 mM CaCl2) at 37° C. for 15 minutes. After reaction for 30 minutes, the reaction was terminated by flash freezing in liquid nitrogen. For color development, 200 μL of a freshly prepared COLDER solution (2.25 M H3PO4, 4.5 M H2SO4, 1.5 mM NH4Fe(SO4), 20 mM diacetyl monoxime, and 1.5 mM thiosemicarbazide) was added to each of the reaction terminated solutions. The resulting mixture was vortexed to ensure complete mixing and then, incubated at 95° C. for 30 minutes (Firestein, G. S., 2003, Nature, 423(6937), 356-61; Jones, J. E., et al., ACS chemical biology, 7(1), 160-5). The absorbance at 540 nm was measured. Compared with a standard curve of Cit, the concentration of Cit produced during the reaction was determined.

HeLa cells = assay: Intracellular introduction of fluorescently labeled peptides into living HeLa cells, confocal microscope; type: cell-based; settings: 37° C., 60 minutes
Method: HeLa cells proliferated on a 90-mm plate until they reached sub-confluence and Trypsin/EDTA were treated at 37° C. for […] to release the cells from the plate. A culture dish (Iwaki) having a 35-mm glass bottom was seeded with 1×10^4 cells. […] The latter ones were used for confirming cell integrity. The intracellular distribution of the fluorescently labeled peptide was analyzed using a Leica TCS SP2 microscope equipped with an N PLAN 40× objective lens, without washing and immobilization. The HeLa cells were incubated with the fluorescently labeled peptides, at 37° C. for 60 minutes. […], they were observed under a confocal fluorescence microscope. All the assays were performed using a small dish with a glass bottom so that not a sample having the cells mounted thereon but a sample in a buffer was observed. DRAQ7 (3 μM) is a far-red fluorescent dye and it dyes only the nuclei of permeable dead cells. When the peptides are incubated, this DRAQ7 is added to find whether the cells are alive or not.

Substance | PAD4 inhibitory ability relative to Cl-amidine and VB1C12 peptide (PAD4) [times] | PAD4 inhibition, dose dependence (PAD4) | PAD4 inhibitory activity compared with the existing PAD4 inhibitor (PAD4) | concentration necessary for incorporation in HeLa cells (HeLa cells)
VB1C12-Cl-amidine analog: VB1C12 peptide with a haloacetamidine warhead introduced by modifying the Arg residue (ornithine δNH2 chloroacetamidine) (Ac-[dF]NA[Ahp(2)]YPY[Orn](chloroacetamidine)PP[Ahp(2)]TSC; bridge N-14; not fully specified (C-terminus, bridges)) | 2.7 | – | – | –
^ClAc-D-F-N-A-Ahep-Y-P-Y-R-P-P-Ahep-T-S-C ({CH2CO}-[dF]NA[Ahp(2)]YPYRPP[Ahp(2)]TSC-NH2; thioether N-14; SMILES CCCCC[C@@H]1NC(=O)[C@H](C)NC(=O)[C@H](CC(N)=O)NC(=O)[C@@H](Cc2ccccc2)NC(=O)CSC[C@@H](C(N)=O)NC(=O)[C@H](CO)NC(=O)[C@H]([C@@H](C)O)NC(=O)[C@H](CCCCC)NC(=O)[C@@H]2CCCN2C(=O)[C@@H]2CCCN2C(=O)[C@H](CCCNC(=N)N)NC(=O)[C@H](Cc2ccc(O)cc2)NC(=O)[C@@H]2CCCN2C(=O)[C@H](Cc2ccc(O)cc2)NC1=O) [VB1C12] | – | dose-dependently inhibit PAD4 | not stronger than that of the existing PAD4 inhibitor | –
^ClAc-D-F-D-A-Ahep-Y-P-F-R-P-P-Ahep-A-H-C (Ac-[dF]DA[Ahp(2)]YPFRPP[Ahp(2)]AHC; bridge N-14; not fully specified (C-terminus, bridges); printed as ClAc-D-F-D-A-Ahep-Y-P-F-R-P-P-Ahep-A-H-C) [VB1C20] | – | dose-dependently inhibit PAD4 | not stronger than that of the existing PAD4 inhibitor | at least 10 μM
